Molecular target: the molecule itself
Assay: cryo-EM structure; 1-MDa fraction of the Superose 6 Increase step, 1 mg/ml, frozen anaerobically at once after purification; Titan Krios G3i, K3; focused maps of Hdr(ABC)2 and of the Elp arm in two conformational states

B1: heterodisulfide reductase HdrABC (complex)
chain 1: MAEEKKETMEEPKIGVYVCHCGVNIGGVVDVEAVRDYAAKLPNVVIAKDYKYYCSDPGQLEIQKDIKELGINRVVVAACSPRLHEPTFRRCVEEAGLNQFLFEFANIREHDSWVHMDNPEGATEKAKDLVRMAVAKARLLEPLEASKVSVDDKALVIGGGVAGIQAALDLADMGFKTYMVEKRPSISGRMGQLDKTFPTLDCSMCILAPKMVDVGKHDNIELITYAEVKEVDGYIGNFKVKIEKKPRYIDEELCTGCGSCVEVCPIEMPNYFDEGIGMTKAVYIPFPQAVPLCATIDKDYCIECMLCDEVCERGAVKHDQEPEEIEIEVGTIIVATGYDAYDPTEKLEYGYGRHTNVITGLELERMINASGPTDGKVLKPSDGEKPKRVAFIHCVGSRDEQIGKPYCSRVCCMYIMKNAQLIKDKMPDTEVTLYYMDIRAFGKGFEEFYKRSQEKYGIKFIRGRPAEVIENPDLTLTVRSEDTLLGKVTEYDYDMVVLGVGLVPPEGAETLRQTIGLSKSADGFLMEAHPKLRPVDTLTDGVYLAGVAQGPKDIPDAVAQASGAAARAAIPMVKGEVEIEPIIAVTDSDVCGGCEVCIELCPFGAISIEEGHANVNVALCKGCGTCVAACPSGAMDQQHFKTEQIMAQIEAALNEPASK
chain 2: not shown
chain 3: MTLLQREENIIRKGNIDKEFSEKIKAAGGDSLEYCFQCGTCTGSCPSGRRTPYRVRQIIRKANVGLKDEIISDPTLWMCTTCYSCQERCPRKVKIVDVVKLARNEAAKAGFMAPAHKAVGSFVIKTGHGVPINDATMELRKAVGLGELPPTTHQFPEALEEVQKIIKATGFDQLIGYNWETGELE
notes: also called Hdr(ABC)2; (HdrABC)2
- stoichiometry N: 2

Reference: article PMC12350162 (Nature, 2025)
